Experimental findings from patent KR20160086217A (dated 2016) are described below.

Assay [1] has as its target T1, c-Met (UniProt P08581 25-932, limits assumed).
T1 construct: also called 항원인 c-Met
In words: SPR, Biacore T100; antibody (from GSKO GLUD1 301 GS cells) captured on Human Fab binder on CM5 chip, c-Met as analyte 25 to 0.78 nmol, 1:1 kinetic fit. On the technique in general: SPR reads the build-up and loss of mass on a sensor chip optically.

Assay [2] deals with T1, c-Met. Put plainly: SPR, Biacore T100; antibody (from GSKO GLUD1 301 GS cells) captured on Human Fab binder on CM5 chip, c-Met as analyte, 1:1 kinetic fit; rounded form of the value in r2.
Assay [3] deals with T1, c-Met. Put plainly: SPR, Biacore T100; antibody (from GSKO 301 GS cells) captured on Human Fab binder on CM5 chip, c-Met as analyte, 1:1 kinetic fit; rounded form of the value in r2.
Assay [4] addresses T1, c-Met. In words: SPR, Biacore T100; antibody (from GSKO 301 GS cells) captured on Human Fab binder on CM5 chip, c-Met as analyte 25 to 0.78 nmol, 1:1 kinetic fit.

T1 sequence (P08581 25-932 limits assumed): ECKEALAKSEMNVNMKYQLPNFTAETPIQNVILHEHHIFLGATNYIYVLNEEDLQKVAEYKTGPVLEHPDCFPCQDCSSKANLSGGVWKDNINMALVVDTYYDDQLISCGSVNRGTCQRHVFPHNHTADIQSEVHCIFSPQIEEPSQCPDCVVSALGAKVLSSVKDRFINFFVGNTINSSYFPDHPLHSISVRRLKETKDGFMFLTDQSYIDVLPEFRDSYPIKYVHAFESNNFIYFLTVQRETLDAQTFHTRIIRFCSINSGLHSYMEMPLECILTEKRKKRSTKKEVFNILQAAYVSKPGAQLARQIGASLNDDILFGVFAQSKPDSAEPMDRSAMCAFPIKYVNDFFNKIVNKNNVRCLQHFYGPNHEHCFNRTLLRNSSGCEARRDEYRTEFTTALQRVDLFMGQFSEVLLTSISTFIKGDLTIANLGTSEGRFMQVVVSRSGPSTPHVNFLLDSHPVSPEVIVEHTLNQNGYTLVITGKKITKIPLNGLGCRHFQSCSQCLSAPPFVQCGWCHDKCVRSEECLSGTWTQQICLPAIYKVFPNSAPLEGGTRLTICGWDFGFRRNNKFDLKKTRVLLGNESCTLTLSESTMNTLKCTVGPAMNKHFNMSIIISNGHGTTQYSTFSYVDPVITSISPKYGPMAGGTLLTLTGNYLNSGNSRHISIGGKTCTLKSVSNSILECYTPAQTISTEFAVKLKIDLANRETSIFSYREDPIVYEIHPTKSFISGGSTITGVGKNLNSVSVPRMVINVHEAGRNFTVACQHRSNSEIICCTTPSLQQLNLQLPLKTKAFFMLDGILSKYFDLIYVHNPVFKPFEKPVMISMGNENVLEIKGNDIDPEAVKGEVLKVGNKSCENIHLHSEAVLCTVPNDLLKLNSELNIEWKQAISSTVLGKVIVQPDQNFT

B1: 항 c-Met 항체 L3-1Y/IgG2 (antibody, V domains shown)
VH: EVQLVESGGGLVQPGGSLRLSCAASGFTFTDYYMSWVRQAPGKGLEWLGFIRNKANGYTTEYSASVKGRFTISRDNSKNTLYLQMNSLRAEDTAVYYCARDNWFAYWGQGTLVTVSS
VL: DIQMTQSPSSLSASVGDRVTITCKSSQSLLASGNQNNYLAWYQQKPGKAPKMLIIWASTRVSGVPSRFSGSGSGTDFTLTISSLQPEDFATYYCQQSYSRPYTFGQGTKVEIKR
notes: also called S301-12A37 standard; S301-12A37
One may read the Kd as the concentration at which binding is half-saturated. A lower Kd goes with a tighter complex. Turning to B1, the Kd in the assay with c-Met [1] was found to be 0.0926 nM; with c-Met [2], 0.09 nM; with c-Met [3], 0.06 nM; with c-Met [4], 0.0573 nM.
